Numbering of substitutions follows the chain as printed. Several values for one entry are separate records, joined by “and”; a condition that tells them apart may be missing. Identical values can stand only once.
T1: biotin-labeled cynomolgus monkey CD137 fused to human IgG1 Fc fragment (cynomolgus monkey; human, UniProt Q07011 24-186, limits assumed, biotin-labeled)
T1 construct: also called cyno CD137-Fc; not shown: human IgG1 Fc fragment
T1 chain: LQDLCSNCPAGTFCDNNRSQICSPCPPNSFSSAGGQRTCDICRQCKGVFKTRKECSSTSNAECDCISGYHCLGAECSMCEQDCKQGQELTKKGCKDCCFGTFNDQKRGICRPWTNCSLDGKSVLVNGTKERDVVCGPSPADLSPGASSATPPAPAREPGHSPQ

B1: dBBDu197 (antibody, IgG1, V domains shown)
VH: QVQLVESGGGLVQPGRSLRLSCAASGFTFSNAWMHWVRQAPGKGLEWVAQIKDRSNAYAAYYAPSVKGRFTISRDDSKNSIYLQMNSLKTEDTAVYYCHYVHYASASTVLPAFGVDAWGQGTTVTVSS
VL: DIVMTQSPLSLPVTPGEPASISCRSSQSLVHSNRNTYLHWYQQKPGQAPRLLIYKVSNRFSGVPDRFSGSGSGTDFTLKISRVEAEDVGVYYCGQGTQVPYTFGQGTKLEIK
notes: IgG1
B2: dBBDu202 (antibody, IgG1, V domains shown)
VH: B1 VH with R54K, S55G, A104S, S105A
VL: B1 VL
notes: IgG1
B3: dBBDu173 (antibody, IgG1, V domains shown)
VH: B1 VH with R54K, S55G, A57L, S107G, T108G, V109G, P111S, F113Y
VL: B1 VL
notes: IgG1
B4: dBBDu196 (antibody, IgG1, V domains shown)
VH: B1 VH with S55G, A59N, P64E
VL: B1 VL
notes: IgG1
B5: dBBDu204 (antibody, IgG1, V domains shown)
VH: B1 VH with A57N, A60T, P64E
VL: B1 VL
notes: IgG1
B6: dBBDu167 (antibody, IgG1, V domains shown)
VH: B1 VH with R54K, S55G, A57L, S107G, T108G, V109G, A112G
VL: B1 VL
notes: IgG1
B7: dBBDu193 (antibody, IgG1, V domains shown)
VH: B1 VH with A57Q, A60T, A104S, S105A, V109L, A112S
VL: B1 VL
notes: IgG1
B8: dBBDu189 (antibody, IgG1, V domains shown)
VH: B1 VH with V48I, A57Q, A60T, S105Q, T108S, V109L, A112S
VL: B1 VL
notes: IgG1
B9: dBBDu186 (antibody, IgG1, V domains shown)
VH: B1 VH with A57Q, A60T, S105Q
VL: B1 VL
notes: IgG1
B10: dBBDu205 (antibody, IgG1, V domains shown)
VH: B1 VH with N56Q, A57L
VL: B1 VL
notes: IgG1
B11: dBBDu199 (antibody, IgG1, V domains shown)
VH: B1 VH with R54K, S55Q, N56S, A57G, A59N, A60T
VL: B1 VL
notes: IgG1
B12: CE115HA340 one-arm antibody (antibody, human IgG1, kappa, L234A L235A, N297A)
VH: QVQLVESGGGLVQPGRSLRLSCAASGFTFSNAWMHWVRQAPGKGLEWVAQIKDKSNNYATYYAESVKGRFTISRDDSKNSIYLQMNSLKTEDTAVYYCRYVHYAAYYGVDAWGQGTTVTVSSASTKGPSVFPLAPSSKSTSGGTAALGCLVKDYFPEPVTVSWNSGALTSGVHTFPAVLQSSGLYSLSSVVTVPSSSLGTQTYICNVNHKPSNTKVDKKVEPKSCDKTHTCPPCPAPEAAGGPSVFLFPPKPKDTLMISRTPEVTCVVVDVSHEDPEVKFNWYVDGVEVHNAKTKPREEQYASTYRVVSVLTVLHQDWLNGKEYKCKVSNKALPAPIEKTISKAKGQPREPQVYTLPPSRCELTKNQVSLSCAVKGFYPSDIAVEWESNGQPENNYKTTPPVLDSDGSFFLVSKLTVDKSRWQQGNVFSCSVMHEALHNHYTQKSLSLSPDYKDDDDK
chain: EPKSSDKTHTCPPCPAPELLGGPSVFLFPPKPKDTLMISRTPEVTCVVVDVSHEDPEVKFNWYVDGVEVHNAKTKPREEQYNSTYRVVSVLTVLHQDWLNGKEYKCKVSNKALPAPIEKTISKAKGQPREPQVCTLPPSRDELTKNQVSLWCLVKGFYPSDIAVEWESNGQPENNYKTTPPVLDSDGSFFLYSKLTVDKSRWQQGNVFSCSVMHEALHNRYTQKSLSLSP
light: DIVMTQSPLSLPVTPGEPASISCRSSQSLVHSNRNTYLHWYQQKPGQAPRLLIYKVSNRFSGVPDRFSGSGSGTDFTLKISRVEAEDVGVYYCGQGTQVPYTFGQGTKLEIKRTVAAPSVFIFPPSDEQLKSGTASVVCLLNNFYPREAKVQWKVDNALQSGNSQESVTEQDSKDSTYSLSSTLTLSKADYEKHKVYACEVTHQGLSSPVTKSFNRGEC
notes: one-arm antibody
B13: NNS6f59 (antibody)
chain 1: QVQLVESGGGLVQPGRSLRLSCAASGFTFSNAWMHWVRQAPGKGLEWVAQIKDKSNNYATYYAESVKGRFTISRDDSKNSIYLQMNSLKTEDTAVYYCRYVHYAALLVQEGYYGVDAWGQGTTVTVSSASTKGPSVFPLAPSSKSTSGGTAALGCLVKDYFPEPVTVSWNSGALTSGVHTFPAVLQSSGLYSLSSVVTVPSSSLGTQTYICNVNHKPSNTKVDKKVEPKSCDKTHTCPPCPAPEAAGGPSVFLFPPKPKDTLMISRTPEVTCVVVDVSHEDPEVKFNWYVDGVEVHNAKTKPREEQYASTYRVVSVLTVLHQDWLNGKEYKCKVSNKALPAPIEKTISKAKGQPREPQVYTLPPSRCELTKNQVSLSCAVKGFYPSDIAVEWESNGQPENNYKTTPPVLDSDGSFFLVSKLTVDKSRWQQGNVFSCSVMHEALHNHYTQKSLSLSPDYKDDDDK
chain 2: B12 chain
chain 3: B12 light
B14: NNS6f58 (antibody)
chain 1: B13 chain 1 with L106S, L107W, V108Q, Q109V, E110S, G111R
chain 2: B12 chain
chain 3: B12 light
B15: NNS6f27 (antibody)
chain 1: B13 chain 1 with L106V, L107W, V108G, Q109S, E110V, G111W
chain 2: B12 chain
chain 3: B12 light
B16: NNS6f71 (antibody)
chain 1: B13 chain 1 with L106G, L107W, Q109L, E110G, G111S
chain 2: B12 chain
chain 3: B12 light
B17: NNS6f64 (antibody)
chain 1: B13 chain 1 with L107V, V108S, Q109L, E110T, G111V
chain 2: B12 chain
chain 3: B12 light
B18: NHS6f17 (antibody)
chain 1: B13 chain 1 with L106W, L107G, V108E, Q109G, E110V, G111V
chain 2: B12 chain
chain 3: B12 light
B19: NNS6f55 (antibody)
chain 1: B13 chain 1 with L106A, L107G, V108R, Q109W, E110L, G111A
chain 2: B12 chain
chain 3: B12 light
B20: NNS6f68 (antibody)
chain 1: B13 chain 1 with L106V, L107E, V108W, Q109G, E110R, G111W
chain 2: B12 chain
chain 3: B12 light
B21: NNS6f73 (antibody)
chain 1: B13 chain 1 with L106W, L107V, Q109G, E110V, G111R
chain 2: B12 chain
chain 3: B12 light
B22: NNS6f54 (antibody)
chain 1: B13 chain 1 with L106F, L107E, V108W, Q109V, E110G, G111W
chain 2: B12 chain
chain 3: B12 light
B23: NHS6f50 (antibody)
chain 1: B13 chain 1 with L107T, V108G, Q109G, E110L
chain 2: B12 chain
chain 3: B12 light
B24: NHS6f52 (antibody)
chain 1: B13 chain 1 with L106Y, L107M, V108L, Q109G, E110L
chain 2: B12 chain
chain 3: B12 light
B25: NHS6f29 (antibody)
chain 1: B13 chain 1 with L106I, L107Y, V108Y, Q109P, E110T, G111N
chain 2: B12 chain
chain 3: B12 light
B26: NNS6f63 (antibody)
chain 1: B13 chain 1 with L106G, L107G, V108G, Q109G, E110W, G111V
chain 2: B12 chain
chain 3: B12 light
B27: NNS6f67 (antibody)
chain 1: B13 chain 1 with L106G, V108L, Q109R, E110A, G111A
chain 2: B12 chain
chain 3: B12 light
B28: NNS6f56 (antibody)
chain 1: B13 chain 1 with L106R, L107E, V108A, Q109T, E110R, G111W
chain 2: B12 chain
chain 3: B12 light
B29: NNS6f72 (antibody)
chain 1: B13 chain 1 with L106E, L107G, V108I, Q109W, E110W
chain 2: B12 chain
chain 3: B12 light
B30: NNS6f47 (antibody)
chain 1: B13 chain 1 with L106H, L107F, V108M, Q109W, E110W
chain 2: B12 chain
chain 3: B12 light
B31: NNS6f62 (antibody)
chain 1: B13 chain 1 with L106N, L107G, V108G, Q109T, E110R, G111H
chain 2: B12 chain
chain 3: B12 light
B32: NNS6f51 (antibody)
chain 1: B13 chain 1 with L106G, L107F, V108L, Q109V, E110L, G111W
chain 2: B12 chain
chain 3: B12 light

Biological target: T1, biotin-labeled cynomolgus monkey CD137 …
Experiment: ELISA, IgG

binding result | Binder
binds | B1
binds | B2
binds | B3
binds | B4
binds | B5
binds | B6
binds | B7
binds | B8
binds | B9
binds | B10
binds | B11

biological target: biotinylated CD3 epsilon epitope peptide; experiment: SPR, one-arm Ab

Kd | Binder
20 nM and 27 nM | B12
200 nM | B13
44 nM | B14
38 nM | B15
51 nM | B16
78 nM | B17
74 nM | B18
31 nM | B19
45 nM | B20
26 nM | B21
29 nM | B22
71 nM | B23
52 nM | B24
90 nM | B25
69 nM | B26
36 nM | B27
21 nM | B28
150 nM | B29
31 nM | B30
61 nM | B31
31 nM | B32
